Experimental data as given in patent US20090053180A1, “Tandem cardiac pacemaker system” (priority 2005, published 2009).
Entries after “also recorded” stand apart in the source; their conditions may differ.

Columns and labels:
[1] = test system: newborn rat ventricular myocytes; test: Whole-cell voltage clamp of expressed HCN current in newborn rat ventricular myocytes; type: cell-based; details: for V1/2 / s: fit of average data; for current density: measured at −135 mV
Method: Adult rats were anesthetized with ketamine-xylazine before cardiectomy, and neonatal rats decapitated. Newborn rat ventricular myocyte cultures were prepared as previously described (Protas and Robinson, 1999). Briefly, 1-2-day-old Wistar rats were euthanized, hearts were quickly removed and ventricles were dissociated using a standard trypsinization procedure. Myocytes were harvested, preplated to reduce fibroblast proliferation, cultured initially in serum-containing medium (except when being transfected with plasmids as described below), and then incubated in serum free medium (SFM) at 37° C., 5% CO2 after 24 h. Action potential studies were conducted on 4-day-old monolayer cultures plated directly onto fibronectin-coated 9×22 mm glass coverslips. For voltage clamp experiments, 4-6 day old monolayer cultures were resuspended by brief (2-3 min) exposure to 0.25% trypsin, then replated onto fibronectin-coated coverslips and studied within 2-8 h.
Adenoviral infection of the newborn ventricular myocytes was performed on cell monolayer cultures 4 days after initial plating. Cells were exposed to a virus-containing mix (m.o.i. 20, in 250 μl of culture medium) for 2 h, rinsed twice and incubated in SFM at 37° C., 5% CO2 for 24-48 hours prior to the cells being resuspended as described above for electrophysiological study.
The whole-cell patch clamp technique was employed to record mHCN2 current from cultured myocytes. Experiments were carried out on cells superfused at 35° C. The external solution contained (mM): NaCl, 140; NaOH, 2.3; MgCl2, 1; KCl, 10; CaCl2, 1; HEPES, 5; glucose, 10; pH 7.4. MnCl2 (2 mM) and BaCl2 (4 mM) were added to block other currents. The pipette solution contained (mM): aspartic acid, 130; KOH, 146; NaCl, 10; CaCl2, 2; EGTA-KOH, 5; Mg-ATP, 2; HEPES-KOH, 10; pH 7.2.
To measure the HCN activation curve, a standard two-step protocol was employed. Hyperpolarizing steps from −25 to −135 mV for mHCN2 and from −5 or −15 to −135 mV for mE324A were applied from a holding potential of −10 mV, followed by a tail current step (to −125 or −135 mV). The duration of test steps was longer at less hyperpolarized potential for mHCN2 channels, to more closely approach steady-state activation at all voltages. The normalized plot of tail current versus test voltage was fit with a Boltzmann function and then the voltage of half maximum activation (V1/2) and slope factor(s) were defined from the fitting. Activation kinetics were determined from the same traces, while deactivation kinetics were determined from traces recorded at each test potential after achieving full activation by a prepulse to −135 mV. Time constants were then obtained by fitting the early time course of activation or deactivation current traces with a monoexponential function; the initial delay and any late slow activation or deactivation phase were ignored (Qu et al., 2001; Altomare et al., 2001). Current densities are expressed as the value of the time-dependent component of current amplitude, measured at the end of the test potential and normalized to cell membrane capacitance. Records were not corrected for liquid junction potential, which was previously determined to be 9.8 mV under these conditions (Qu et al., 2001).

[2] = test system: dogs with complete AV block; test: Tandem biological and electronic pacemakers in dogs with complete AV block (injection into left bundle branch); type: in vivo, dog
Method: Adult mongrel dogs weighing 22-25 kg were anesthetized with propofol 6 mg/kg IV and inhalational isoflurane (1.5%-2.5%). Using a steerable catheter, saline (n=5), AdmHCN2 (n=6) or AdmE324A (n=4) were injected into the left bundle branch (LBB) as described previously (Plotnikov et al., 2004). In 2 additional dogs AdmE324A was injected into the LV septal myocardium as an internal control. Complete AV block was induced via radiofrequency ablation and each site of injection was paced via catheter electrode to distinguish electrocardiographically the origin of the idioventricular rhythm during the follow up period.
An electronic pacemaker (Discovery II, Flextend lead; Guidant, Indianapolis, Ind.) was implanted and set at VVI 45 bpm. ECG, 24 hour Holter monitoring, pacemaker log record check, and overdrive pacing at 80 bpm were performed daily for 14 days. To evaluate beta-adrenergic responsiveness, on day 14, epinephrine (1.0, 1.5 and 2.0 μg/kg/min for up to 10 min each) was infused to an endpoint of a 50% increase in idioventricular rate or ventricular arrhythmia (single ventricular premature beats having a morphology other than that of the dominant idioventricular rhythm or ventricular tachycardia), whichever occurred first. If none of the above responses was observed within 10 min after onset of the maximal dose of 2 μg/kg/min, the infusion was terminated.
Data are presented as means±SEM. […] One-way ANOVA was used to evaluate the effect of an implanted construct on electrophysiological parameters. Subsequent analysis was performed using Bonferroni's test where equal variances were assumed and the Games-Howell test where variances were unequal. A two-way contingency table analysis was conducted to evaluate whether epinephrine had different effects across three groups. Data were analyzed using SPSS for Windows software (SPSS, Inc.). P<0.05 was considered to be significant.
Complete AV block was induced via radiofrequency ablation, and electronic pacemakers were implanted into the right ventricular apical endocardium and set a VV1 45 bpm. ECG and 24-h monitoring were performed daily for 14 days. Beta-adrenergic responsiveness was also evaluated as described above.
Escape time was evaluated daily by performing three 30-s periods of ventricular overdrive pacing at 80 bpm followed by an abrupt cessation of pacing. The average time between the final electronically paced beat and the first intrinsic beat was then determined. […] There was a different result with regard to basal heart rates throughout the 14-day period, however.

[3] = test system: canine proximal LV conducting system; details: sinus rhythm suppressed by vagal stimulation; cited from earlier work
Xenopus oocytes = test: Two-microelectrode voltage clamp of expressed HCN current in Xenopus oocytes; type: cell-based, Xenopus laevis
[4] = test system: cell-free patches from Xenopus oocytes; details: cited from earlier work
[5] = 10 μM cAMP in the pipette solution

B1: mHCN2: mouse HCN2 pacemaker ion channel (GenBank AJ225122), expressed from plasmid, cRNA or adenoviral construct AdmHCN2 (protein, UniProt O88703 1-863, looked up)
Potassium/sodium …: MDARGGGGRPGDSPGTTPAPGPPPPPPPPAPPQPQPPPAPPPNPTTPSHPESADEPGPRARLCSRDSACTPGAAKGGANGECGRGEPQCSPEGPARGPKVSFSCRGAASGPSAAEEAGSEEAGPAGEPRGSQASFLQRQFGALLQPGVNKFSLRMFGSQKAVEREQERVKSAGAWIIHPYSDFRFYWDFTMLLFMVGNLIIIPVGITFFKDETTAPWIVFNVVSDTFFLMDLVLNFRTGIVIEDNTEIILDPEKIKKKYLRTWFVVDFVSSIPVDYIFLIVEKGIDSEVYKTARALRIVRFTKILSLLRLLRLSRLIRYIHQWEEIFHMTYDLASAVMRICNLISMMLLLCHWDGCLQFLVPMLQDFPSDCWVSINNMVNHSWSELYSFALFKAMSHMLCIGYGRQAPESMTDIWLTMLSMIVGATCYAMFIGHATALIQSLDSSRRQYQEKYKQVEQYMSFHKLPADFRQKIHDYYEHRYQGKMFDEDSILGELNGPLREEIVNFNCRKLVASMPLFANADPNFVTAMLTKLKFEVFQPGDYIIREGTIGKKMYFIQHGVVSVLTKGNKEMKLSDGSYFGEICLLTRGRRTASVRADTYCRLYSLSVDNFNEVLEEYPMMRRAFETVAIDRLDRIGKKNSILLHKVQHDLSSGVFNNQENAIIQEIVKYDREMVQQAELGQRVGLFPPPPPPQVTSAIATLQQAVAMSFCPQVARPLVGPLALGSPRLVRRAPPGPLPPAASPGPPAASPPAAPSSPRAPRTSPYGVPGSPATRVGPALPARRLSRASRPLSASQPSLPHGVPAPSPAASARPASSSTPRLGPAPTARTAAPSPDRRDSASPGAASGLDPLDSARSRLSSNL
- shift of V1/2 by cAMP [1, 5]: 9.7 mV
- percentage of myocytes expressing current ([1]; 6 matched cell cultures): 74.5%
- midpoint of activation ([1]; HCN2 virus characterized in neonatal rat myocytes): −69.3 mV
- activation τ ([1]; at −65 mV): 639 ± 72 ms
- V1/2 [1, 5]: −59.9 mV
- s [1, 5]: 11.0 mV
- V1/2 ([1]; absence of cAMP): −69.6 mV
- s ([1]; absence of cAMP): 10.8 mV
- slope factor s ([1]; mean of individual Boltzmann fits): 10.7±0.5 mV
- V1/2 (voltage of half maximum activation) ([1]; mean of individual Boltzmann fits, adenoviral infection): −66.1±1.5 mV
- current density [1]: 53.5±8.7 pA/pF
- current density ([1]; listed as HCN2): 53.5±8.3 pA/pF
- share of animals with 50% or more increase that required the highest dose of epinephrine ([2]; 2 μg/kg/min): 33%
- beats triggered by the electronic pacemaker, of all beats ([2]; 14 days, electronic pacemaker set at VVI 45 bpm): 26±6%
- arrhythmias during epinephrine infusion ([2]; day 14): two animals developed ventricular arrhythmias
- mean basal heart rate compared with saline group ([2]; days 1-7 and 8-14): significantly faster
- animals with less than a 50% increase in rate ([2]; epinephrine 1.0, 1.5, 2.0 μg/kg/min, day 14): 50%
- control rate prior to epinephrine ([2]; representative animal, day 14): 44 bpm
- rate with epinephrine ([2]; representative animal, epinephrine 1 μg/kg/min): 60 bpm
- rate of idioventricular rhythms [3]: 50-60 bpm
- activation more negative than mE324A (Xenopus oocytes): 35 mV
- effect of Cs+ on inward current (Xenopus oocytes; 5 mM Cs+): blocked; also recorded: large inhibition
- shift of activation curve to more positive potentials by cAMP [4]: 17 mV
